The values that follow come from US20110257076A1 (INDIANA UNIVERSITY RESEARCH AND TECHNOLOGY, published 2011).

Assay [1] has as its target T1, human IGF-1 receptor (human, UniProt P08069 31-1367). In words: cell-based or functional assay. The arrangement: EC50, total phosphorylation, Insulin Receptor (Mar. 31, 2008): unit not given beside the values.
The target of assay [2] is T2, human insulin receptor (human, UniProt P06213 28-1382). In words: cell-based or functional assay. The arrangement: EC50, total phosphorylation, Insulin Receptor (Mar. 31, 2008): unit not given beside the values.
In assay [3] the target is T2, human insulin receptor. In words: SPA competition vs [125I]-insulin, membranes with human insulin receptor (Example 3); Dec. 4, 2007. As to the method:
(§1) Non-specifically bound (NSB) radioactivity was measured in the wells with a four-fold concentration excess of “cold” native ligand than the highest concentration in test samples. Total bound radioactivity was detected in the wells with no competitor. Percent specific binding was calculated as following: % Specific Binding=(Bound-NSB/Total bound-NSB)×100. IC50 values were determined by using Origin software (OriginLab, Northampton, Mass.).

For assay [4], the target named is T2, human insulin receptor. In words: SPA competition vs [125I]-insulin, membranes with human insulin receptor (Example 3); Jun. 5, 2008. As to the method:
as §1

Assay [5] addresses T2, human insulin receptor. In words: SPA competition vs [125I]-insulin, membranes with human insulin receptor (Example 3); Nov. 9, 2007. As to the method: as §1
Assay [6] deals with T1, human IGF-1 receptor. In words: SPA competition vs [125I]-IGF-1, membranes with human IGF-1 receptor (Example 3); Jun. 4, 2007. As to the method:
as §1

In assay [7] the target is T1, human IGF-1 receptor. In words: SPA competition vs [125I]-IGF-1, membranes with human IGF-1 receptor (Example 3); Sep. 18, 2007. As for the experimental part: as §1
Assay [8] has as its target T2, human insulin receptor. In words: SPA competition vs [125I]-insulin, membranes with human insulin receptor (Example 3); May 22, 2007. As to the method: as §1
Assay [9] has as its target T2, human insulin receptor. In words: SPA competition vs [125I]-insulin, membranes with human insulin receptor (Example 3); May 29, 2007. As for the experimental part:
as §1

In assay [10] the target is T2, human insulin receptor. In words: SPA competition vs [125I]-insulin, membranes with human insulin receptor (Example 3); May 18, 2007. As to the method:
as §1

Ends that are not written are not given here.

B1: IGF-1 A:B (H5D10Y16L17) DPI (ligand)
chain 1: GIVDECCFRSCDLRRLEMYCA-NH2
chain 2: GPEHLCGADLVDALYLVCGDRGFY-NH2
modifications: disulfide (positions not given here); not fully specified (bridges)
For the molecule B1, the “% IGF, total phosphorylation, IGF-1 Receptor” value (shortened to “% IGF, total phosphorylation”) in the assay with human IGF-1 receptor [1] worked out at 7.1%.

B2: IGF-1 A:B(D10Y16L17) DPI A-COOH (ligand)
chain 1: GIVDECCFRSCDLRRLEMYCA-OH
chain 2: GPETLCGADLVDALYLVCGDRGFY-NH2
modifications: disulfide (positions not given here); not fully specified (bridges)
Turning to B2, the “% Insulin, total phosphorylation, Insulin Receptor” value with human insulin receptor [2] turned out to be 1580%. Besides, the “% IGF, total phosphorylation” value in the assay with human IGF-1 receptor [1] is 112%. The figures for the “% native insulin activity (0.6 nM)” value with human insulin receptor [3], with human insulin receptor [4] and in the assay with human insulin receptor [5] were 300%, 144% and 231%, respectively.

B3: IGF-1 A (H8 A9 N21):B(H5D10Y16L17) DPI A-COOH (ligand)
chain 1: GIVDECCHASCDLRRLEMYCN-OH
chain 2: GPEHLCGADLVDALYLVCGDRGFY-NH2
modifications: disulfide (positions not given here); not fully specified (bridges)
Regarding B3, in the assay with human IGF-1 receptor [1], the “% IGF, total phosphorylation” value came to 181%.

B4: IGF-1 A (H8 A9 N21):B(H5D10Y16L17 A22) DPI A-COOH (ligand)
chain 1: GIVDECCHASCDLRRLEMYCN-OH
chain 2: GPEHLCGADLVDALYLVCGDAGFY-NH2
modifications: disulfide (positions not given here); not fully specified (bridges)
In the case of B4, the “% IGF, total phosphorylation” value with human IGF-1 receptor [1] was 7.7%.

B5: IGF-1 A:B(E10Y16L17) (ligand)
chain 1: GIVDECCFRSCDLRRLEMYCA-NH2
chain 2: GPETLCGAELVDALYLVCGDRGFYFNKPT-NH2
modifications: disulfide (positions not given here); not fully specified (bridges)
Regarding B5, in the assay with human insulin receptor [2], the “% Insulin, total phosphorylation, Insulin Receptor” value worked out at 49.2% and the “EC50, total phosphorylation, Insulin Receptor (Mar. 31, 2008)” value was 2.57. The “% IGF, total phosphorylation” value with human IGF-1 receptor [1] worked out at 13%. For the same molecule, in the assay with human IGF-1 receptor [6], the “% IGF-1 (in test)” value is 6.8% and the “% native IGF-1 activity (0.55 nM)” value is 7%. In the assay with human IGF-1 receptor [7], the “% IGF-1 (in test)” value stood at 5% and the “% native IGF-1 activity (0.55 nM)” value turned out to be 4.5%. Also, in the assay with human insulin receptor [8], the “% insulin (in test)” value is 58.7% and the “% native insulin activity (0.6 nM)” value is 90.9%. Also, the “% native insulin activity (0.6 nM)” value in the assay with human insulin receptor [9] is 118%.

B6: IGF-1 A:In (1-17)-IGF-1 B (18-30) (ligand)
chain 1: GIVDECCFRSCDLRRLEMYCA-NH2
chain 2: FVNQHLCGSHLVEALYLVCGDRGFYFNKPT-NH2
modifications: disulfide (positions not given here); not fully specified (bridges)
notes: The B chain is a chimera; The conversion is mine
In the case of B6, the “% native insulin activity (0.6 nM)” value with human insulin receptor [10] worked out at 22.5%; in the assay with human insulin receptor [8], 21.7%; with human insulin receptor [9], 24.2%. Moreover, the “% insulin (in test)” value with human insulin receptor [8] worked out at 14%.

B7: IGF-1 A:B(E10 Y16L17)-E31E32 B-COOH (ligand)
chain 1: GIVDECCFRSCDLRRLEMYCA-NH2
chain 2: GPETLCGAELVDALYLVCGDRGFYFNKPTEE-OH
modifications: disulfide (positions not given here); not fully specified (bridges)
With B7, the “EC50, total phosphorylation, Insulin Receptor (Mar. 31, 2008)” value with human insulin receptor [2] is 7.
